Patent publication US20140121131A1 (AFFINITY BIOSCIENCES, published 2014)

Legend:
biotinylated His6-GFP [1] = target: T1, biotinylated His6-GFP (UniProt P42212 1-238 = GFP); assay: phage capture on streptavidin Dynal beads labelled with biotinylated His6-GFP; fusion protein induced with arabinose; reference is Hy5 phage with wild-type gpL
T1 construct: Held on streptavidin magnetic particles or Dynal beads; also called biotinylated eGFP; Biotin-labeled eGFP; not shown: His6 tag

biotinylated His6-GFP [2] = target: T1, biotinylated His6-GFP; assay: phage capture on streptavidin Dynal beads labelled with biotinylated His6-GFP; fusion protein not induced; reference is Hy5 phage with wild-type gpL

B1: αGFP::I27::gpL fusion protein (VHH)
chain: MGDGMQVQLVESGGALVQPGGSLRLSCAASGFPVNRYSMRWYRQAPGKEREWVAGMSSAGDRSSYEDSVKGRFTISRDDARNTVYLQMNSLKPEDTAVYYSNVNVGFEYWGQGTQVTVSSNSSSQTSLIEVEKPLYGVEVFVGETAHFEIELSEPDVHGQWKLKGQPLTASPDCEIIEDGKKHILILHNCQLGMTGEVSFQAANAKSAANLKVKELNSSSDYKDDDDKGNGTLIIPRKEAPVSGEGTVVIPQPAGDEPVIKNTFFFPDIDPKRVRERMRLEQTVAPARLREAIKSGMAETNAELYEYREQKIAAGFTRLADVPADDIDGESIKVFYYERAVCAMATASLYERYRGVDASAKGDKKADSIDSTIDELWRDMRWAVARIQGKPRCIVSQI
notes: also called Hy5 + αGFP:I27:gpL; gpL capsid fusion protein
Biotinylated His6-GFP [1]
  Enrichment (fold over Hy5): 82 fold over Hy5
Biotinylated His6-GFP [2]
  Enrichment (fold over Hy5): 6.5 fold over Hy5
